Assay results: PMC6771824, “Topology and enzymatic properties of a canonical Polycomb repressive complex 1 isoform” (Febs Letters, 2019)

Experiments:
[1] = molecular target: T1, RING1B-PCGF2 heterodimer (human, UniProt Q99496 1-336; P35227 1-344); test: MST; UbcH5c labelled with NT-547 at 100 nM; RING1B (from 80 uM at 2x) or RING1B-PCGF2 (from 38 uM at 2x) in 16 serial dilutions; HEPES 50 mM pH 8, NaCl 75 mM, DTT 1 mM, Tween 0.05%; Monolith NT.115, LED 20%, MST power 40%; details: both partners purified
T1 construct: RING1B, human, full length; the same chain as m1; PCGF2 (aka Mel18), human, full length; the same chain as m2; Pre-formed complex titrated as one molecule against UbcH5c; also called RING1B-PCGF2 subcomplex; source: Sf21 insect cells (MultiBac co-expression), purified (strep-tactin resin, two S200 SEC steps)
T1 sequence (looked up) 1: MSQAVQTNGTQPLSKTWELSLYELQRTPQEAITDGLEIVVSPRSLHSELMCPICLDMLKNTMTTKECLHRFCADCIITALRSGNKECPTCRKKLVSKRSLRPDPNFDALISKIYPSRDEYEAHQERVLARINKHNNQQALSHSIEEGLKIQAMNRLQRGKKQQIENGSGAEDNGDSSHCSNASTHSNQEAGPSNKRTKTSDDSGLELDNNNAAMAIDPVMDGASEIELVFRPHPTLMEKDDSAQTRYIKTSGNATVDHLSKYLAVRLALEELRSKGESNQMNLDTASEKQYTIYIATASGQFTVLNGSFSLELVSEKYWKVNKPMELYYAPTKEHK
T1 sequence (looked up) 2: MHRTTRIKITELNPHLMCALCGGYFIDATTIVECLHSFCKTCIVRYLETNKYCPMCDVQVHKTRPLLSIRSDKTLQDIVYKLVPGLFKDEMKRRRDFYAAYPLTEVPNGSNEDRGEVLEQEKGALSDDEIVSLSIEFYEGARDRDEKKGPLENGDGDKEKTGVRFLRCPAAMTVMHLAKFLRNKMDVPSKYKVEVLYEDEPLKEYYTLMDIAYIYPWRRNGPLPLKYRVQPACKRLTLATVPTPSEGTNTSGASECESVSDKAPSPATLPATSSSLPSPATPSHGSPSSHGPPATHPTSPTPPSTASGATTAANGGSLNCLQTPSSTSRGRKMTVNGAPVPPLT

[2] = molecular target: T2, RING1B (human, UniProt Q99496 1-336); test: as above; details: both partners purified
T2 construct: RING1B, human, catalytic E3 ligase subunit of PRC1; called full length in the discussion; primers run from the second codon to the stop codon; no cleavage of the tag is described; also called strep-tagged RING1B; catalytic subunit RING1B; source: Sf21 insect cells (MultiBac baculovirus), alone or co-expressed with other PRC1 subunits; in lysate and purified (strep-tactin resin, two S200 SEC …)
T2 sequence (looked up): T1 sequence (looked up) 1

Kd [1]: 4100 ± 1000 nM | Kd [2]: 230 ± 80 nM
B1: UbcH5c (enzyme)
chain: not shown
modifications: NT-547 fluorescent dye on Cys85
notes: UbcH5c, ubiquitin-conjugating E2 enzyme; also called UbcH5c E2 enzyme; E2 enzyme; source: E. coli Rosetta (DE3), purified (GST resin, 3C cleavage, Ni-NTA flow-through, S200 SEC)
